Patent publication US10471163B2, “Activatable fibrin-binding probes” (priority 2013, dated 2019)
Numbered stars: 1 amine (or outer) side, 2 acyl side, 3 side chain; on linkers, the order of the positions; unused ones are H or OH. Bridge positions count the residues as written; N and C are the ends. TRITC = tetramethylrhodamine dye; Cysteamine = C(CS[*:2])N[*:1]; Ahx = NCCCCCC(=O)O

Assays:
[1] = biological target: DD(E) (soluble protein fragment of fibrin) (Homo sapiens, UniProt P02671+P02675+P02679); settings: known value used for the competition assay; read-out: dissociation constant (Kd) of the TRITC-Tn6 probe for DD(E), known value; cited from earlier work
PDI [2] = biological target: T1, PDI (Homo sapiens, UniProt P07237); experiment: Real-time fluorescence anisotropy assay of TRITC-Tn6-MDS activation in presence of DD(E); assay type: biochemical; settings: only when both PDI and DTT are present simultaneously; 2 μM DD(E)
Procedure: These experiments were conducted in the same assay buffer as was used for the LC-MS experiment described above.

fibrin fragment DD(E) = fibrin fragment DD(E) (Homo sapiens, UniProt P02671+P02675+P02679); experiment: Direct binding to DD(E) by fluorescence anisotropy; settings: serial dilution of DD(E)
Procedure: The binding constants of the TRITC-Tn6-MDS probe and its activated cyclic form were then measured with the fibrin fragment DD(E). A serial dilution of the DD(E) protein was prepared and then mixed with the two probes. […] Therefore, the disulfide linkage of this probe can act as a switch for binding.

PDI [3] = biological target: T1, PDI; experiment: LC-MS analysis of conversion of TRITC-Tn6-MDS to cyclized form; assay type: biochemical
Procedure: This mixed disulfide (MDS) probe, denoted as TRITC-Tn6-MDS, was then tested to determine whether it could be recognized as a substrate by PDI. Conversion of the probe from the mixed-disulfide (MDS) form to the cyclized form was followed by LC-MS under three sets of reaction conditions (PDI alone; DTT alone; and PDI+DTT). The assay buffer for these experiments was 50 mM TRIS, 100 mM NaCl, 2 mM CaCl, and 0.1% Triton X-100.

T1 sequence (P07237 18-508, species assumed): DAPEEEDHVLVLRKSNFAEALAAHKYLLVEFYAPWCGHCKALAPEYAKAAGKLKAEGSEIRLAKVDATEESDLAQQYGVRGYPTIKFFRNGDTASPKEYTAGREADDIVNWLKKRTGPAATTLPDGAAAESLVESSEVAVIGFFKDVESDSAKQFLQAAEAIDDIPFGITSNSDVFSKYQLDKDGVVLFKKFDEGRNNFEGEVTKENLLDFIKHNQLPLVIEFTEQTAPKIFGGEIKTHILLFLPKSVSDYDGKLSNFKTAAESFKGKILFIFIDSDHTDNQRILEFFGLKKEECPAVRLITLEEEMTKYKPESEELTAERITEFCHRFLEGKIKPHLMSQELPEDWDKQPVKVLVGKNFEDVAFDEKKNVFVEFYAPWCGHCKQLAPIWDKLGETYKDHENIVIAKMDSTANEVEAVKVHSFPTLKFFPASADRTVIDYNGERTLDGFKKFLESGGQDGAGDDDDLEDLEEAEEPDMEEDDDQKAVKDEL
Chain of fibrin fragment DD(E) (P02671 130-216): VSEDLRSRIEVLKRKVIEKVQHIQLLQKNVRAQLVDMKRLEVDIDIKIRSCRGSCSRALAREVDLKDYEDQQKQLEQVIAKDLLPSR
Chain of fibrin fragment DD(E) (P02675 164-491): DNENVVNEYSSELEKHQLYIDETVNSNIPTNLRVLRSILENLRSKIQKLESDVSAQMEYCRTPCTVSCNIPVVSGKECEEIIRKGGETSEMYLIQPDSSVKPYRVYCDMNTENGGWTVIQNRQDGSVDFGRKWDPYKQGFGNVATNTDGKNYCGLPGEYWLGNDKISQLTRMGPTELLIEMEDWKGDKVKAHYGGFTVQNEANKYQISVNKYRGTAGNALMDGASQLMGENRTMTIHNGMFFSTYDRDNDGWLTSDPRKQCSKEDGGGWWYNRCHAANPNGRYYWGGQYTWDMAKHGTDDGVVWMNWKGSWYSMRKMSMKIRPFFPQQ
Chain of fibrin fragment DD(E) (P02679 114-432): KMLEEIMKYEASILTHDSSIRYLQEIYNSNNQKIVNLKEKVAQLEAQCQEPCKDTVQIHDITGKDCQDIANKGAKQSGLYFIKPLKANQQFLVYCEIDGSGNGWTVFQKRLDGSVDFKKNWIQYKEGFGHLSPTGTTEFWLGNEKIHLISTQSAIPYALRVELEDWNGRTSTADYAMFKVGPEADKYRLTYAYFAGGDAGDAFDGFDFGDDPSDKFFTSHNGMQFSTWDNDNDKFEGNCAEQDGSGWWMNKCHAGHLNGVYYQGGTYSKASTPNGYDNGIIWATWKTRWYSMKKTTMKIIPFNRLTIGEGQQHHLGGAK
Chain of fibrin fragment DD(E) (P02671 36-97): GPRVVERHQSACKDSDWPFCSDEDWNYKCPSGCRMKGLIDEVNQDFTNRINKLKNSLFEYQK
Chain of fibrin fragment DD(E) (P02675 45-152): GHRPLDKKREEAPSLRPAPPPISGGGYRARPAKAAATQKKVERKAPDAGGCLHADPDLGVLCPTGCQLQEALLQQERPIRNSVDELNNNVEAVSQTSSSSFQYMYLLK
Chain of fibrin fragment DD(E) (P02679 27-88): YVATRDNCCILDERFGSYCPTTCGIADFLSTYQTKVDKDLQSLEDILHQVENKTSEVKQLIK
Chain of DD(E) (soluble protein fragment of fibrin) (P02671 130-216): as the sequence (P02671 130-216) above
Chain of DD(E) (soluble protein fragment of fibrin) (P02675 164-491): as the sequence (P02675 164-491) above
Chain of DD(E) (soluble protein fragment of fibrin) (P02679 114-432): as the sequence (P02679 114-432) above
Chain of DD(E) (soluble protein fragment of fibrin) (P02671 36-97): as the sequence (P02671 36-97) above
Chain of DD(E) (soluble protein fragment of fibrin) (P02675 45-152): as the sequence (P02675 45-152) above
Chain of DD(E) (soluble protein fragment of fibrin) (P02679 27-88): as the sequence (P02679 27-88) above

Substance	Kd [1] [µM]	activation of the probe (cyclization and binding to DD(E)) (PDI [2])	Kd for DD(E) relative to that of the cyclic form (fibrin fragment DD(E))	conversion of mixed-disulfide form to cyclized form (PDI [3]; PDI alone)	conversion of mixed-disulfide form to cyclized form (PDI [3]; PDI in the presence of DTT, compared to DTT alone)
TRITC-Tn6: fluorescent peptide structurally similar to EP-2104R that binds the same site on DD(E) ({TRITC-Ahx}-QWECPYGLCWIQ-NH2; disulfide 4-9 (inferred))	0.51				
TRITCAha -QWECPYGLCWIQ-NH2 ({TRITC-Ahx}-QWEC(Cysteamine)PYGLC(Cysteamine)WIQ-NH2) [TRITC-Tn6-MDS, linear optical probe; N-terminal tetramethylrhodamine via 6-aminohexanoic acid linker; two cysteines protected as mixed disulfides with cystamine]		efficiently activated	roughly 20 fold	does not promote cyclization	rapid conversion
